Measurements from the supplement of paper PMC9876800.

Test system: peptide library, one residue held at a place counted from the S/T acceptor
Experiment: relative phosphorylation of the sub-library (ratio to the mean residue at this position); human; higher = residue favoured
In short: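 Relative sub-library phosphorylation is a ratio to the mean residue at the same position. Purified recombinant kinases were incubated under kinase-specific conditions with biotinylated degenerate peptide sub-libraries, each fixing one residue at one position around a central Ser/Thr, using 50 μM peptide and 50 μM ATP spiked with γ-32P-ATP for 90 min. Spots captured on streptavidin membranes were phosphorimaged and quantified by densitometry.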

BRSK2, construct: Full length, sequence (Q8IWQ3 whole entry, looked up): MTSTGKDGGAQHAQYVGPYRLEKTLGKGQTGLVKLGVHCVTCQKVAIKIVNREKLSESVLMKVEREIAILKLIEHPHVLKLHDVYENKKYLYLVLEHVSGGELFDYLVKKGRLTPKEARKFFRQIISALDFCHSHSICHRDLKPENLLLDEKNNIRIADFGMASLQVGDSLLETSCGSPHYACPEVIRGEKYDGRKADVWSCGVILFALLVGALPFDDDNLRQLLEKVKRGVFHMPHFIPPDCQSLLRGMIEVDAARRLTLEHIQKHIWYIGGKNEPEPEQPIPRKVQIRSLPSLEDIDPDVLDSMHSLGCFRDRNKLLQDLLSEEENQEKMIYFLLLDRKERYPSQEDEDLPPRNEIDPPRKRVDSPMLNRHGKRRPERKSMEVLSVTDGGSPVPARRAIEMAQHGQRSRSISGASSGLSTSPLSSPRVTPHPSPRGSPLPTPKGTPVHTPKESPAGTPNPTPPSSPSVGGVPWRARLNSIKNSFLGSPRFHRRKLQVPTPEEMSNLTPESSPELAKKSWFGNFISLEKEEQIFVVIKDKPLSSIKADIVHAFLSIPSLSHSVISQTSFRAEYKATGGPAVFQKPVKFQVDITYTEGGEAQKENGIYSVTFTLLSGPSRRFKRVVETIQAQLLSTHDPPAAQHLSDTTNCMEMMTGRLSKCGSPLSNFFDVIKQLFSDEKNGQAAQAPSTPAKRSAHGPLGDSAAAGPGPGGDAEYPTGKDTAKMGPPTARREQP
AURKB, construct: Full length, sequence (Q96GD4 whole entry, looked up): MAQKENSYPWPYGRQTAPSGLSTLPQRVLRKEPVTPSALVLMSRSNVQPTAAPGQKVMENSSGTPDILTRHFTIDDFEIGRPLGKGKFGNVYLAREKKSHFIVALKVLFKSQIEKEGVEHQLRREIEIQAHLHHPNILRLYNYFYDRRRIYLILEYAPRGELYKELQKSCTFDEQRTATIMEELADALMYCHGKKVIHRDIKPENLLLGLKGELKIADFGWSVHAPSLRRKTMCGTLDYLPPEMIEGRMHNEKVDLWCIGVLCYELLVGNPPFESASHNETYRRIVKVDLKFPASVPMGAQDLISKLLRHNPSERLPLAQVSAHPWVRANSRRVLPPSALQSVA

AURKB, construct: Full length (from UniProt Q96GD4)
relative phosphorylation
Conditions | at +1 | at +2 | at +3 | at +4 | at -1 | at -2 | at -3 | at -4 | at -5
A fixed | 0.803 | 0.959 | 0.784 | 0.784 | 0.651 | 0.28 | 0.727 | 1.01 | 1.08
D fixed | 0.673 | 0.507 | 0.523 | 0.986 | 0.489 | 0.176 | 0.485 | 0.629 | 0.734
E fixed | 0.611 | 0.427 | 0.498 | 0.727 | 0.433 | 0.183 | 0.422 | 0.653 | 0.511
F fixed | 1.34 | 1.05 | 1.35 | 0.856 | 0.678 | 0.247 | 0.633 | 0.724 | 0.867
G fixed | 1.11 | 1.59 | 1.3 | 1.06 | 0.553 | 0.381 | 0.954 | 1.17 | 1.24
H fixed | 0.933 | 1.6 | 1.51 | 1.09 | 0.971 | 0.542 | 1.02 | 1.03 | 1.06
I fixed | 1.21 | 0.911 | 0.957 | 0.869 | 0.735 | 0.217 | 0.553 | 0.709 | 0.855
K fixed | 0.78 | 0.77 | 0.955 | 1.13 | 2.06 | 2.28 | 2.2 | 1.8 | 1.81
L fixed | 1.49 | 0.948 | 1.14 | 0.989 | 1.23 | 0.25 | 0.554 | 0.738 | 0.779
M fixed | 1.59 | 0.864 | 0.901 | 1.06 | 0.97 | 0.243 | 0.661 | 0.829 | 0.786
N fixed | 1.33 | 1.04 | 0.981 | 1.08 | 0.788 | 0.377 | 0.784 | 0.844 | 0.966
P fixed | 0.212 | 1.07 | 1.1 | 1.32 | 0.917 | 0.327 | 0.9 | 0.953 | 0.985
Q fixed | 1.18 | 1.13 | 0.923 | 1.32 | 1.08 | 0.528 | 0.775 | 0.849 | 0.911
R fixed | 1.05 | 0.972 | 0.968 | 1.01 | 2.98 | 10.2 | 4.37 | 2.72 | 1.9
V fixed | 0.82 | 0.897 | 0.844 | 0.823 | 0.827 | 0.207 | 0.564 | 0.687 | 0.762
W fixed | 0.932 | 1.05 | 1.23 | 1.17 | 0.605 | 0.287 | 0.735 | 0.855 | 0.931
Y fixed | 0.922 | 1.22 | 1.05 | 0.734 | 1.04 | 0.276 | 0.665 | 0.798 | 0.831
pThr fixed | 0.88 | 0.581 | 0.555 | 1.08 | 0.413 | 0.314 | 0.591 | 0.691 | 0.716
pTyr fixed | 0.59 | 0.435 | 0.847 | 0.784 | 0.461 | 0.272 | 0.62 | 0.556 | 0.66

BRSK2, construct: Full length (from UniProt Q8IWQ3)
relative phosphorylation
Conditions | at +1 | at +2 | at +3 | at +4 | at -1 | at -2 | at -3 | at -4 | at -5
A fixed | 0.653 | 0.569 | 0.726 | 0.598 | 1.07 | 1.91 | 0.829 | 1.14 | 1.01
D fixed | 0.341 | 0.505 | 1.34 | 0.41 | 0.539 | 0.816 | 0.264 | 0.367 | 0.357
E fixed | 0.396 | 0.471 | 0.574 | 0.299 | 0.433 | 0.659 | 0.257 | 0.435 | 0.355
F fixed | 2.02 | 1.69 | 1.95 | 1.3 | 0.867 | 1.19 | 0.728 | 0.686 | 1.2
G fixed | 0.53 | 0.464 | 0.85 | 0.562 | 1.3 | 1.35 | 0.703 | 1.16 | 0.964
H fixed | 0.802 | 1.49 | 1.25 | 0.718 | 1.18 | 1.05 | 1.31 | 1.3 | 0.842
I fixed | 1.03 | 0.679 | 0.518 | 3.23 | 0.674 | 0.591 | 0.389 | 0.522 | 1.08
K fixed | 0.624 | 0.337 | 0.775 | 0.727 | 1.53 | 1.04 | 2.71 | 2.04 | 1.35
L fixed | 1.17 | 0.739 | 0.609 | 3.06 | 0.956 | 0.564 | 0.427 | 0.58 | 1.27
M fixed | 3.01 | 0.951 | 0.675 | 1.47 | 1.14 | 0.664 | 0.589 | 0.881 | 1.33
N fixed | 0.925 | 1.03 | 2.68 | 0.671 | 1.02 | 0.843 | 0.681 | 0.752 | 0.599
P fixed | 0.203 | 0.489 | 0.403 | 0.654 | 1.55 | 0.833 | 0.687 | 1.58 | 0.954
Q fixed | 1.19 | 1.01 | 1.07 | 0.661 | 1.12 | 0.701 | 0.861 | 0.913 | 0.817
R fixed | 1.07 | 0.416 | 0.916 | 0.599 | 1.2 | 1.35 | 4.56 | 2.14 | 1.71
V fixed | 0.914 | 0.567 | 0.499 | 0.876 | 0.781 | 0.978 | 0.405 | 0.678 | 0.801
W fixed | 0.924 | 1.98 | 1.09 | 0.607 | 0.642 | 1.34 | 0.886 | 0.976 | 1.12
Y fixed | 1.2 | 3.62 | 1.08 | 0.559 | 1.01 | 1.13 | 0.711 | 0.844 | 1.24
pThr fixed | 0.909 | 0.54 | 0.378 | 0.452 | 0.332 | 0.451 | 0.401 | 0.624 | 0.6
pTyr fixed | 0.419 | 0.504 | 0.571 | 0.287 | 0.899 | 0.366 | 0.376 | 0.533 | 0.594
